Molecular target: influenza hemagglutinin full length protein, A/New-York/55/04 (H3N2) (influenza A virus A/New-York/55/04 (H3N2))
Assay: SPR

wild-type cyanovirin-N (WT CV–N), sequence (P81180 whole entry): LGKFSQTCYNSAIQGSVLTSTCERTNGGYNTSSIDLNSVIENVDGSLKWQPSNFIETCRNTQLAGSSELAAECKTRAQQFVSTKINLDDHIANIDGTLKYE

Substance: wild-type cyanovirin-N (WT CV–N) (from UniProt P81180 1-101) (natural protein)
- Kd: 5.7 nM
